This assay has as its target trypsin from bovine pancreas (bovine). Kind of assay: enzyme inhibition kinetics.

pKi: −log10 of the molar value.

trypsin from bovine pancreas (bovine), sequence (P00760 24-246): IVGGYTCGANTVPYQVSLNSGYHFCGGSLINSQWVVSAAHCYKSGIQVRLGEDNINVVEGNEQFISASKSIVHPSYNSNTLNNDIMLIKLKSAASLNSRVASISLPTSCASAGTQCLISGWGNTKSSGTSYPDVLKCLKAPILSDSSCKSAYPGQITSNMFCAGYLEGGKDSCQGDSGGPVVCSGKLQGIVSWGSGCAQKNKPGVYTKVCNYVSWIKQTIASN

With “ovomucoid trypsin inhibitor (from UniProt P01005 25-210) (natural protein)”, the pKi was 4.24.
